The target of this data set is prothrombin.

B1: oscutarin C (OsPA), Group C prothrombin activator purified from Oxyuranus scutellatus (Coastal Taipan) venom, preparation 17 Apr. 2012 (protein)
chain 1: ANSLYEEFRSGNIERECIEERCSKEEAREVFEDDEKTETFWNVYVDGDQCSSNPCHYRGTCKDGIGSYTCTCLSGYEGKNCERVLYKSCRVDNGNCWHFCKPVQNDIQCSCAEGYLLGEDGHSCVAGGNFSCGRNIKTRNKREASLPDFVQSQNAILLKKSDNPSPDIRIVNGMDCKLGECPWQAVLVDEKEDAFCGGTILSPIYVLTAAHCINQTKMISVVVGEINISRKNPGRLLSVDKIYVHQKFVPPKKGYEFYEKFDLVSYDYDIAILQMKTPIQFSENVVPACLPTADFANQVLMKQDFGIVSGFGRIFEKGPQSKTLKVLKVPYVDRHTCMLSSESPITPTMFCAGYDTLPRDACQGDSGGPHITAYRDTHFITGIVSWGEGCAQTGKYGVYTKVSKFILWIKRIMRQKLPSTESSTGRL
chain 2: AQLREYRLAAQLEDWDYNPQPEELSRLSESDLTFKKIVYREYELDFKQEKPRDELSGLLGPTLRGEVGDSLIIYFKNFATQPVSIHPQSAVYNKWSEGSSYSDGTSDVERLDDAVPPGQSFKYVWNITAEIGPKKADPPCLTYAYYSHVNMVRDFNSGLIGALLICKEGSLNADGAQKFFNREYVLMFSVFDESKNWYRKPSLQYTINGFANGTLPDVQACAYDHISWHLIGMSSSPEIFSVHFNGQTLEQNHYKVSTINLVGGASVTANMSVSRTGKWLISSLVAKHLQAGMYGYLNIKDCGNPDTLTRKLSFRERRRIMKWEYFIAAEEITWDYAPEIPSSVDRRYKAQYLDNFSNFIGKKYKKAVFRQYEDSNFTKPTYAIWPKERGILGPVIKAKVRDTVTIVFKNLASRPYSIYVHGVSVSKDAEGAVYPSDPKENITHGKAVEPGQVYTYKWTVLDTDEPTVKDSECITKLYHSAVDMTRDIASGLIGPPLVCKRKALSIRGVQNKADVEQHAVFAVFDENKSWYLEDNIKKYCSNPSSVKKDDPKFYKSNVMYTLNGYASDRTEVWGFHQSEVVEWHLTSVGTVDEIVPVHLSGHTFLSKGKHQDILNLFPMSGESATVTMDNLGTWLLSSWGSCEMSNGMRLRFLDANYDDEDEGNEEEEEDDGDIFADIFNPPEVVIKKEEVPVNFVPDPESDALAKELGLFDDEDNPKQSRSEQTEDDEEQLMIASMLGLRSFKGSVAEEELKHTALALEEDAHASDPRIDSNSAHNSDDIAGRYLRTINRRNKRRYYIAAEEVLWDYSPIGKSQVRSLPAKTTFKKAIFRSYLDDTFQTPSTGGEYEKHLGILGPIIRAEVDDVIEVQFRNLASRPYSLHAHGLLYEKSSEGRSYDDNSPELFKKDDAIMPNGTYTYVWQVPPRSGPTDNTEKCKSWAYYSGVNPEKDIHSGLIGPILICQKGMIDKYNRTIDIREFVLFFMVFDEEKSWYFPKSDKSTCEEKLIGVQSRHTFPAINGIPYQLQGLMMYKDENVHWHLLNMGGPKDVHVVNFHGQTFTEEGREDNQLGVLPLLPGTFASIKMKPSKIGTWLLETEVGENQERGMQALFTVIDKDCKLPMGLASGIIQDSQISASGHVGYWEPKLARLNNTGMFNAWSIIKKEHEHPWIQIDLQRQVVITGIQTQGTVQLLKHSYTVEYFVTYSKDGQNWITFKGRHSKTQMHFEGNSDGTTVKENHIDPPIIARYIRLHPTKFYNTPTFRIELLGCEVEGCSVPLGMESGAIKDSEITASSYKKTWWSSWEPFLARLNLKGRTNAWQPKVNNKDQWLQIDLQHLTKITSIITQGATSMTTSMYVKTFSIHYTDDNSTWKPYLDVRTSMEKVFTGNINSDGHVKHFFNPPILSRFIRIIPKTWNQYIALRIELFGCEVF
As to B1, the “rate of prothrombin activation in the S-2238 two-stage assay (thrombin produced against sampling time)” value is recorded as “(eg) (9.98e-6 umol/min)” and the “specific activity of the prothrombin activator (rate of thrombin production against OsPA concentration)” value is recorded as “(eg) (5.0e-3 units/mg)”.
